Experimental data: patent US20230192845A1

Experiments:
[1] = molecular target: human CD96 short isoform v2 expressed on CHO cells (human) (UniProt P40200); assay: FCM on hCD96v2-CHO cells
[2] = molecular target: human CD96 short isoform v2 expressed on CHO cells (human) (UniProt P40200); assay: FCM, inhibition of hCD155-Fc binding to hCD96v2-CHO cells
[3] = molecular target: T1, hCD96-humanIgG1 fusion protein (human) (UniProt P40200); assay: SPR (Biacore), hCD96-hFc captured by anti-huFc
T1 sequence: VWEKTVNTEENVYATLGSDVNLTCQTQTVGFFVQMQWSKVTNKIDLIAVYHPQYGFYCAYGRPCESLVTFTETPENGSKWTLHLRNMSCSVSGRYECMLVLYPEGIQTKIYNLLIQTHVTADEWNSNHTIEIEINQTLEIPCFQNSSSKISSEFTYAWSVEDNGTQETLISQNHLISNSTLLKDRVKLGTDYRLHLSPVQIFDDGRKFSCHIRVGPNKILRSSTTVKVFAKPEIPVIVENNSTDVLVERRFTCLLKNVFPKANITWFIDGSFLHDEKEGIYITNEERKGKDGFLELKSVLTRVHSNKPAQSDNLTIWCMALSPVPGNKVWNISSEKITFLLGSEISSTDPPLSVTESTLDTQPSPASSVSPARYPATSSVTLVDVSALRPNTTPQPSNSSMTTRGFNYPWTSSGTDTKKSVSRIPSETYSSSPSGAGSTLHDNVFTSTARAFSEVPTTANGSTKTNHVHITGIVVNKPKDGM

[4] = molecular target: hCD96-HA tagged protein transiently expressed on CHO cells (FRET assay) (human) (UniProt P40200); assay: FRET between anti-HA-PE and anti-HA-APC by flow cytometry on CHO cells transfected with hCD96-HA; right-hand plot; the left-hand plot of the panel prints FRET 0,10% (taken as the pooled negative control)
[5] = molecular target: hCD226-His tagged protein transiently expressed on CHO cells (human) (UniProt Q15762); assay: FRET between anti-hCD226-PE (DX11) and anti-HA-APC by flow cytometry on CHO cells transfected with hCD96-HA and hCD226-His; right-hand plot; the left-hand plot of the panel prints FRET 0,22% (taken as the pooled negative control)
Chain of hCD226-His tagged protein transiently expressed on CHO cells (human) (Q15762 19-336): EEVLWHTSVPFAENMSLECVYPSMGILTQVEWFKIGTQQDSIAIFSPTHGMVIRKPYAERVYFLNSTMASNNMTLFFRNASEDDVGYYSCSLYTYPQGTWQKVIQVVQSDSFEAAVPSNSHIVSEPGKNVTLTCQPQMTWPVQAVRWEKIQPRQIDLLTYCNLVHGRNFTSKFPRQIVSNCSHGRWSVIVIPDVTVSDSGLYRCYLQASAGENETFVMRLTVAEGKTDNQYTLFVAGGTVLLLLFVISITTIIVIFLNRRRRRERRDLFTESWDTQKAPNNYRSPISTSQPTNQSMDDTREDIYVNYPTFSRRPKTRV

Row | EC50 [1] [nM] | Maximum binding (delta MFI) [1] [delta MFI] | IC50 [2] [nM] | Maximal Inhibition Capacity (%) [2] [%] | Kd [3] [nM] | koff [3] [s⁻¹] | kon [3] [M⁻¹ s⁻¹] | FRET (% of cells in the FRET gate) [4] [%] | FRET (% of cells in the FRET gate) [5] [%] | Substance
1 | 1.59 | 283000 | 10.4 | 100 | 3.24 | 0.000346 | 107000 | – | – | NK92.39 (antibody)
2 | 3.75 | 543000 | 15.8 | 100 | – | – | – | – | – | clone 628211 (antibody)
3 | – | – | – | – | – | – | – | 11.6 | 17.9 | hCD96-HA tagged protein transiently expressed on CHO cells (FRET assay) (from UniProt P40200 22-585) (receptor)
